{"source": "patent US20110086797", "molecular_target": "elongation factor G (EF-G) of B. subtilis, P80868", "sequence (P80868 2-692)": "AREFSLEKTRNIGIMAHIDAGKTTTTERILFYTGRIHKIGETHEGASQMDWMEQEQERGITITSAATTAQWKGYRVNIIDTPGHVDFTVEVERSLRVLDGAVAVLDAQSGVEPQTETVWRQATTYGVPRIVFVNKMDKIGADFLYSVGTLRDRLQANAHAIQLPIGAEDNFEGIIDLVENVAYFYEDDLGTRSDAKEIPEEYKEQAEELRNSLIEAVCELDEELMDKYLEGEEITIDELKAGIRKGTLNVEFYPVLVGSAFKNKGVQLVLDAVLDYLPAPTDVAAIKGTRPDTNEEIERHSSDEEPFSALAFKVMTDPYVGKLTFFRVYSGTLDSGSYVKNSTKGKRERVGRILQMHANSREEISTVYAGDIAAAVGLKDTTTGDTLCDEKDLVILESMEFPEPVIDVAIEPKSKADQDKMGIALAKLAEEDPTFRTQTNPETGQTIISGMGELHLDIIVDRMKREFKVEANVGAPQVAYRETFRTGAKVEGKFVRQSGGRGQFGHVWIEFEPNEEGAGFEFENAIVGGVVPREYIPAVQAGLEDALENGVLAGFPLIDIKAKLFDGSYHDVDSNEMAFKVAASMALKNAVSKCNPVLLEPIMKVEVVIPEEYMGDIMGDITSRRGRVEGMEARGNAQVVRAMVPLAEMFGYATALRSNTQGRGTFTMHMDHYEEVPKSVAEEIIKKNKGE"}
{"protein": "PrkC Ser/Thr kinase of B. subtilis (protein) MLIGKRISGRYQILRVIGGGGMANVYLAEDIILDREVAIKILRFDYANDNEFIRRFRREAQSASSLDHPNIVSIYDLGEEDDIYYIVMEYVEGMTLKEYITANGPLHPKEALNIMEQIVSAIAHAHQNQIVHRDIKPHNILIDHMGNIKVTDFGIATALSSTTITHTNSVLGSVHYLSPEQARGGLATKKSDIYALGIVLFELLTGRIPFDGESAVSIALKHLQAETPSAKRWNPSVPQSVENIILKATAKDPFHRYETAEDMEADIKTAFDADRLNEKRFTIQEDEEMTKAIPIIKDEELAKAAGEKEAEVTTAQENKTKKNGKRKKWPWVLLTICLVFITAGILAVTVFPSLFMPKDVKIPDVSGMEYEKAAGLLEKEGLQVDSEVLEISDEKIEEGLMVKTDPKADTTVKEGATVTLYKSTGKAKTEIGDVTGQTVDQAKKALKDQGFNHVTVNEVNDEKNAGTVIDQNPSAGTELVPSEDQVKLTVSIGPEDITLRDLKTYSKEAASGYLEDNGLKLVEKEAYSDDVPEGQVVKQKPAAGTAVKPGNEVEVTFSLGPEKKPAKTVKEKVKIPYEPENEGDELQVQIAVDDADHSISDTYEEFKIKEPTERTIELKIEPGQKGYYQVMVNNKVVSYKTIEYPKDE", "values": [{"measurement": "EF-G phosphorylation (immunoprecipitation with anti-EF-G, western blot with anti-phosphothreonine antibody)", "value": "EF-G (as identified by probing the same fractions with the α-EF-G) phosphorylation increased following exposure to cell free supernatant (FIG. 24D). In contrast, no change in phosphorylation was observed in spores lacking PrkC."}]}
